In patent US8008547B2, “Glyphosate-N-acetyltransferase (GAT) genes” (E.I. duPont de Nemours, priority 2000, dated 2011):
Numbering of substitutions follows the chain as printed.

B1: SEQ ID NO: 414: GAT polypeptide (protein)
chain: MIEVKPINAEDTYEIRHRILRPNQPLEACMYETDLLGGTFHLGGYYRGKLVCIASFHKAEHSELEGQKQYQLRGMATLDGYREQKAGSTLIRHAEELLRKKGADLLWCNARTSVSGYYEKLGFSEQGEVYDIPPVGPHILMYKKLT
modifications: 6F1
notes: GAT polypeptide
B2: SEQ ID NO: 385: GAT polypeptide (protein)
chain: MIEVKPINAEDTYEIRHRILRPNQPLEACKYEADLLGGTFHLGGYYRGKLISIASFHQAEHPELEGQKQYQLRGMATLEGNREQKAGSTLIRHAEELLRKKGADLLWCNARTSASGYYKKLGFSEQGEVYDVPPIGPHILMYKKLT
modifications: 6_17C5
notes: GAT polypeptide
B3: SEQ ID NO: 412: GAT polypeptide (protein)
chain: B2 chain with K30M, A33T, N81Y, E128G, V132I, I135V
modifications: 6_8H3
notes: GAT polypeptide
B4: SEQ ID NO: 408: GAT polypeptide (protein)
chain: B2 chain with K30M, A33T, G80E, N81Y, Y130H, V132I, I135V
modifications: 6_5F11
notes: GAT polypeptide
B5: SEQ ID NO: 398: GAT polypeptide (protein)
chain: B2 chain with K30M, A33T, P62S, E79D, G80E, N81Y, V132I
modifications: 6_22H9
notes: GAT polypeptide
B6: SEQ ID NO: 401: GAT polypeptide (protein)
chain: B2 chain with I19V, K30M, A33T, Q69P, N81Y, V129I, V132I
modifications: 6_2H1
notes: GAT polypeptide
B7: SEQ ID NO: 391: GAT polypeptide (protein)
chain: B2 chain with A33T, F40L, N81Y, H93Q, E128G, V132I, I135V, K144E
modifications: 6_19C8
notes: GAT polypeptide
B8: SEQ ID NO: 403: GAT polypeptide (protein)
chain: B2 chain with K30M, A33T, P62S, N81Y, V132I, I135V
modifications: 6_3G3
notes: GAT polypeptide
B9: SEQ ID NO: 388: GAT polypeptide (protein)
chain: B2 chain with V4A, K30M, A33T, N81Y, V132I, I135T
modifications: 6_19A10
notes: GAT polypeptide
B10: SEQ ID NO: 416: GAT polypeptide (protein)
chain: B2 chain with A33T, N81Y, E128G, V132I
modifications: 7_2A10
notes: GAT polypeptide
B11: SEQ ID NO: 404: GAT polypeptide (protein)
chain: B2 chain with K30M, A33T, G80E, N81Y, V132I, I135V
modifications: 6_3H2
notes: GAT polypeptide
B12: SEQ ID NO: 389: GAT polypeptide (protein)
chain: B2 chain with K30M, A33T, G37R, T39A, P62S, N81Y, V132I, I135V
modifications: 6_19B6
notes: GAT polypeptide
B13: SEQ ID NO: 411: GAT polypeptide (protein)
chain: B2 chain with K30M, A33T, G37R, T39A, P62S, N81Y, E128G, V132I, I135V
modifications: 6_7D1
notes: GAT polypeptide
B14: SEQ ID NO: 270: GAT polypeptide (protein)
chain: B2 chain with K30M, A33T, G37R, I51V, G80E, N81Y, E128G, V132I, I135V
modifications: 10_15F4
notes: GAT polypeptide
B15: SEQ ID NO: 392: GAT polypeptide (protein)
chain: B2 chain with K30M, A33T, G37R, P62S, E63D, G80E, N81Y, V132I, I135V
modifications: 6_20A7
notes: GAT polypeptide
B16: SEQ ID NO: 409: GAT polypeptide (protein)
chain: B2 chain with K30M, A33T, P62S, G80E, N81Y, T112I, E128G, V132I, I135V
modifications: 6_5G9
notes: GAT polypeptide
B17: SEQ ID NO: 402: GAT polypeptide (protein)
chain: B2 chain with V4I, K30M, A33T, N81Y, V132I, I135V
modifications: 6_3D6
notes: GAT polypeptide
B18: SEQ ID NO: 394: GAT polypeptide (protein)
chain: B2 chain with A33T, P62S, N81Y, V132I
modifications: 6_20H5
notes: GAT polypeptide
B19: SEQ ID NO: 397: GAT polypeptide (protein)
chain: B2 chain with K30M, A33T, G37E, P62S, N81Y, V132I, I135V
modifications: 6_22D9
notes: GAT polypeptide
B20: SEQ ID NO: 406: GAT polypeptide (protein)
chain: B2 chain with I19V, K30M, A33T, S52G, N81Y, K119E, E125G, V132I
modifications: 6_4B1
notes: GAT polypeptide
B21: SEQ ID NO: 271: GAT polypeptide (protein)
chain: B2 chain with A33T, N81Y, V132T, I135V
modifications: 10_17D1
notes: GAT polypeptide
B22: SEQ ID NO: 407: GAT polypeptide (protein)
chain: B2 chain with K30M, A33T, G80E, N81Y, V132I
modifications: 6_5D11
notes: GAT polypeptide
B23: SEQ ID NO: 405: GAT polypeptide (protein)
chain: B2 chain with K30M, A33T, N81Y, V132I, I135V
modifications: 6_4A10
notes: GAT polypeptide
B24: SEQ ID NO: 387: GAT polypeptide (protein)
chain: B2 chain with H17X, K30M, A33T, N81Y, E128G, V132I, I135V
modifications: X: residue not identified in the source; ends and bridges not checked
notes: GAT polypeptide
B25: SEQ ID NO: 415: GAT polypeptide (protein)
chain: B2 chain with K30M, A33T, G80E, N81Y, E128G, V132I
modifications: 7_1C4
notes: GAT polypeptide
B26: SEQ ID NO: 413: GAT polypeptide (protein)
chain: B2 chain with A33T, F40L, P62S, N81Y, V132I, I135V
modifications: 6_9G11
notes: GAT polypeptide
B27: SEQ ID NO: 399: GAT polypeptide (protein)
chain: B2 chain with K30M, E32G, A33T, H61Q, N81Y, E128G, V132I, I135V
modifications: 6_23H3
notes: GAT polypeptide
B28: SEQ ID NO: 400: GAT polypeptide (protein)
chain: B2 chain with K30M, A33T, P62S, N81Y, L97I, E128G, V132I, I135V
modifications: 6_23H7
notes: GAT polypeptide
B29: SEQ ID NO: 269: GAT polypeptide (protein)
chain: B2 chain with A33T, F40L, G80E, N81Y, V132I, I135T
modifications: 10_12D7
notes: GAT polypeptide
B30: SEQ ID NO: 395: GAT polypeptide (protein)
chain: B2 chain with I19V, K30M, A33T, T39A, N81Y, I135V
modifications: 6_21F4
notes: GAT polypeptide
B31: SEQ ID NO: 410: GAT polypeptide (protein)
chain: B2 chain with T12A, A33T, P62S, N81Y, E128G, V132I, I135V
modifications: 6_6D5
notes: GAT polypeptide
B32: SEQ ID NO: 390: GAT polypeptide (protein)
chain: B2 chain with A33T, N81Y, V132I
modifications: 6_19C3
notes: GAT polypeptide
B33: SEQ ID NO: 396: GAT polypeptide (protein)
chain: B2 chain with Q24R, K30M, A33T, E63G, Q67K, G80E, N81Y, E128G, V132I, I135V
modifications: 6_22C9
notes: GAT polypeptide
B34: SEQ ID NO: 393: GAT polypeptide (protein)
chain: B2 chain with E10G, A33T, P62S, N81Y, E128G, V132I, I135V
modifications: 6_20A9
notes: GAT polypeptide
B35: SEQ ID NO: 386: GAT polypeptide (protein)
chain: B2 chain with K30R, A33T, N81Y, T112I, V132I, I135V
modifications: 6_18C7
notes: GAT polypeptide

Test: Standard protocol for determination of kcat and KM (continuous spectrophotometric assay, Acetyl CoA hydrolysis at 235 nm)
Type: biochemical
Settings: purified protein; about 23° C.; 20 mM HEPES pH 6.8, 10% ethylene glycol, 0.2 mM acetyl CoA
Method: KM was calculated from the initial reaction rates obtained from concentrations of glyphosate ranging from 0.125 to 10 mM, using the Lineweaver-Burke transformation of the Michaelis-Menten equation. kcat/KM was determined by dividing the value determined for kcat by the value determined for KM.
Using this methodology, kinetic parameters for a number of GAT polypeptides exemplified herein were determined. For example, the kcat, KM and kcat/KM for the GAT polypeptide corresponding to SEQ ID NO:445 have been determined to be 322 min^−1, 0.5 mM and 660 mM^−1 min^−1, respectively, using the assay conditions described above. The kcat, KM and kcat/KM for the GAT polypeptide corresponding to SEQ ID NO:457 have been determined to be 118 min^−1, 0.1 mM and 1184 mM^−1 min^−1, respectively, using the assay conditions described above. The kcat, KM and kcat/KM for the GAT polypeptide corresponding to SEQ ID NO:300 have been determined to be 296 min^−1, 0.65 mM and 456 mM^−1 min^−1, respectively, using the assay conditions described above. One of skill in the art can use these numbers to confirm that a GAT activity assay is generating kinetic parameters for a GAT suitable for comparison with the values given herein. For example, the conditions used to compare the activity of GATs should yield the same kinetic constants for SEQ ID NO: 300, 445 and 457 (within normal experimental variance) as those reported herein, when the conditions are used to compare a test GAT with the GAT polypeptides exemplified herein. Kinetic parameters for a number of GAT polypeptide variants were determined according to this methodology and are provided in Table 3.
In the case of B1, the Kcat is reported as 0.168 s⁻¹.
B2 gave a Kcat of 0.587 s⁻¹.
B3 showed a Kcat of 0.745 s⁻¹.
B4 showed a Kcat of 0.668 s⁻¹.
Molecule B5 has a Kcat of 0.29 s⁻¹.
For B6, the Kcat was 0.443 s⁻¹.
For B7, the Kcat was 1.25 s⁻¹.
Molecule B8 has a Kcat of 0.865 s⁻¹.
With B9 the Kcat was 1.45 s⁻¹.
B10 showed a Kcat of 0.242 s⁻¹.
For B11, the Kcat was 0.953 s⁻¹.
B12 showed a Kcat of 0.398 s⁻¹.
Molecule B13 has a Kcat of 0.328 s⁻¹.
B14 gave a Kcat of 0.627 s⁻¹.
In the case of B15, the Kcat is reported as 0.673 s⁻¹.
B16 gave a Kcat of 0.597 s⁻¹.
Molecule B17 has a Kcat of 0.695 s⁻¹.
Work on B18 yielded a Kcat of 0.325 s⁻¹.
For B19, the Kcat was 0.732 s⁻¹.
B20 showed a Kcat of 0.45 s⁻¹.
With B21 the Kcat was 2.937 s⁻¹.
B22 showed a Kcat of 0.253 s⁻¹.
For B23, the Kcat was 0.917 s⁻¹.
In the case of B24, the Kcat is reported as 0.717 s⁻¹.
With B25 the Kcat was 0.29 s⁻¹.
B26 gave a Kcat of 1.31 s⁻¹.
With B27 the Kcat was 0.732 s⁻¹.
B28 gave a Kcat of 0.77 s⁻¹.
Molecule B29 has a Kcat of 1.29 s⁻¹.
B30 showed a Kcat of 0.405 s⁻¹.
Work on B31 yielded a Kcat of 0.922 s⁻¹.
In the case of B32, the Kcat is reported as 0.385 s⁻¹.
Work on B33 yielded a Kcat of 0.79 s⁻¹.
B34 gave a Kcat of 0.752 s⁻¹.
B35 showed a Kcat of 0.537 s⁻¹.

Same assay, conditions: purified protein; about 23° C.; pH 6.8; 0.2 mM acetyl CoA; glyphosate 0.125 to 10 mM
Work on B1 yielded a Km of 1800 µM.
For B2, the Km was 1300 µM.
With B3 the Km was 1000 µM.
B4 gave a Km of 1900 µM.
In the case of B5, the Km is reported as 1100 µM.
Work on B6 yielded a Km of 900 µM.
Work on B7 yielded a Km of 2000 µM.
In the case of B8, the Km is reported as 1000 µM.
Molecule B9 has a Km of 1900 µM.
B10 gave a Km of 800 µM.
Molecule B11 has a Km of 1000 µM.
Work on B12 yielded a Km of 700 µM.
B13 showed a Km of 500 µM.
Molecule B14 has a Km of 1000 µM.
In the case of B15, the Km is reported as 1000 µM.
B16 showed a Km of 1400 µM.
B17 showed a Km of 1000 µM.
Molecule B18 has a Km of 800 µM.
In the case of B19, the Km is reported as 1300 µM.
B20 gave a Km of 1000 µM.
For B21, the Km was 2200 µM.
Molecule B22 has a Km of 1000 µM.
Work on B23 yielded a Km of 1100 µM.
Molecule B24 has a Km of 1200 µM.
For B25, the Km was 1100 µM.
In the case of B26, the Km is reported as 1300 µM.
In the case of B27, the Km is reported as 1100 µM.
B28 gave a Km of 1200 µM.
Work on B29 yielded a Km of 1800 µM.
B30 showed a Km of 700 µM.
With B31 the Km was 1000 µM.
For B32, the Km was 1400 µM.
B33 gave a Km of 3200 µM.
B34 gave a Km of 1300 µM.
With B35 the Km was 1200 µM.
